Assay results reported in patent US20210221849A1 (MIRABIOLOGICS, published 2021).

Assays:
[1] = target: T1, Met-PA (extracellular region of a human Met receptor with a PA tag at the C terminal) (human, UniProt P08581 25-932); experiment: sandwich ELISA type test: Met-PA on plate, Fab supernatant, detection with Nrp1ec-AP, A405
T1 construct: extracellular domain; Soluble receptor fragment expressed in Expi293F cells; also called second target antigen; not shown: PA tag

[2] = target: T2, plexin B1-PA (extracellular region of human plexin B1 with a PA tag at the C terminal) (human, UniProt O43157 20-1490); experiment: sandwich ELISA type test: plexin B1-PA on plate, Fab supernatant, detection with Nrp1ec-AP, A405
T2 construct: extracellular domain; Soluble receptor fragment expressed in Expi293F cells; Culture supernatant in the pulldown tests, purified for the sandwich tests; also called hPlexB1; plexin B1-BA; not shown: PA tag (Wako Pure Chemical Industries)
T2 sequence (looked up): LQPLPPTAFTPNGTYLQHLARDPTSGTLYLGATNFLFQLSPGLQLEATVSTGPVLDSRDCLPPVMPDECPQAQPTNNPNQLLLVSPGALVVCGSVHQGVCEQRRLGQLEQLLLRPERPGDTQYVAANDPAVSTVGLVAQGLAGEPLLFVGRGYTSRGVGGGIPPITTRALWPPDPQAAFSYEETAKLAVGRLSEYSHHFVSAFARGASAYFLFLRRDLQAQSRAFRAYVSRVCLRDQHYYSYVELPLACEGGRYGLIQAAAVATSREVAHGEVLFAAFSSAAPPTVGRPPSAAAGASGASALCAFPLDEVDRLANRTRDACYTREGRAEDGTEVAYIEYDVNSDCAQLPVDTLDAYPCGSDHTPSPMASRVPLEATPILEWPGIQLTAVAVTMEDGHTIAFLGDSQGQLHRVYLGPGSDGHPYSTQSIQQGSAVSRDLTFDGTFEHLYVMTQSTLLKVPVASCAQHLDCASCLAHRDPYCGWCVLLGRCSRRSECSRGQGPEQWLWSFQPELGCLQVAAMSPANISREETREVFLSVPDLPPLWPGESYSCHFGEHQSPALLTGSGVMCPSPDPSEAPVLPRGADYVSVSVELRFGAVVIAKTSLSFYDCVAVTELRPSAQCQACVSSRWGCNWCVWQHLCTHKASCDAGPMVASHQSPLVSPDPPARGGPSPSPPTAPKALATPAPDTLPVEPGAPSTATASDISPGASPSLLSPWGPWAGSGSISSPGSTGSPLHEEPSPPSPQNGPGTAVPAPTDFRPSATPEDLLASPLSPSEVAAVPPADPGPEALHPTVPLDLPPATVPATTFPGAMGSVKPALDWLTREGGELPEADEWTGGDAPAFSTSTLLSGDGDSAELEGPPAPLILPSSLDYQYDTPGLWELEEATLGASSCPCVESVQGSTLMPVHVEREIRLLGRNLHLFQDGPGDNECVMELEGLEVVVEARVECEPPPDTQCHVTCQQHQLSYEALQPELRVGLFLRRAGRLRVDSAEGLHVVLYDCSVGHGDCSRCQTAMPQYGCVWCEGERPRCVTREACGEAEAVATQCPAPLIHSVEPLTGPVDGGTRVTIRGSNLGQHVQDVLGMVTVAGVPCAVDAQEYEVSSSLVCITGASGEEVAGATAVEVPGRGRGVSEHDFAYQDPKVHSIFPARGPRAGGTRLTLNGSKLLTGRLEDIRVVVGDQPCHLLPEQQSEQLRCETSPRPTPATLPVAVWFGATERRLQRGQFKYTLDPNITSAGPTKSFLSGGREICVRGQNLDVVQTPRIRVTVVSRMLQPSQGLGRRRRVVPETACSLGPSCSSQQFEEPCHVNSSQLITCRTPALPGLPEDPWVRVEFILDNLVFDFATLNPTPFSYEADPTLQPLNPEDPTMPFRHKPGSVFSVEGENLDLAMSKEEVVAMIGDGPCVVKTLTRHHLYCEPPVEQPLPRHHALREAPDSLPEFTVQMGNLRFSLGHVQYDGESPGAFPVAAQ

T1 sequence (P08581 25-932): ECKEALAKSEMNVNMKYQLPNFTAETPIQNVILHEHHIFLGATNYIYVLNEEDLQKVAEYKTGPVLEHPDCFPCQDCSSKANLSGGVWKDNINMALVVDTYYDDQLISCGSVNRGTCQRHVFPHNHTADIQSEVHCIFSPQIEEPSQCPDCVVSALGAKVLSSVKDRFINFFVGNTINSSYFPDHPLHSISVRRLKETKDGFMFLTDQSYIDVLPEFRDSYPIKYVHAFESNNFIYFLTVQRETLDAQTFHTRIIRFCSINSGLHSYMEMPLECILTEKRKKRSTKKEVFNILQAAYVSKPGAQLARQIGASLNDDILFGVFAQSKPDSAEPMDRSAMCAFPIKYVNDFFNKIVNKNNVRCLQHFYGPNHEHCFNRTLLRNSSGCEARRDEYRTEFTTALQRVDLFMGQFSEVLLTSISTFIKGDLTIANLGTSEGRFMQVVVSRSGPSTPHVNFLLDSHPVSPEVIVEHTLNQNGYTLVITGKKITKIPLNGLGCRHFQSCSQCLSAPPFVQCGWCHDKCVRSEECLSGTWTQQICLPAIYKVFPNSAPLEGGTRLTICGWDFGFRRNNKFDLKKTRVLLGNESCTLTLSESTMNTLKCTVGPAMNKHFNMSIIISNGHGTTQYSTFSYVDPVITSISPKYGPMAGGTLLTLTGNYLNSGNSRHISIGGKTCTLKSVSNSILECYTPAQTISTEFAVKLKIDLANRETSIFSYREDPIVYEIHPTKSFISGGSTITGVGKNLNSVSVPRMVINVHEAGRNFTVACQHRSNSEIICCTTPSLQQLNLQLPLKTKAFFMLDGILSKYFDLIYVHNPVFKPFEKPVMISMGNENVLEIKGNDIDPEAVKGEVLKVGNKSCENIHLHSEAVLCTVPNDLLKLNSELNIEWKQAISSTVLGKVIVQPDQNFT

B1: N1_Fab having no peptide inserted therein (Fab, V domains shown)
VH: EVQLVESGGGLVQPGGSLRLSCAASGFSFSSEPISWVRQAPGKGLEWVSSITGKNGYTYYADSVKGRFTISADTSKNTAYLQMNSLRAEDTAVYYCARWGKKVYGMDVWGQGTLVTVSS
VL: DIQMTQSPSSLSASVGDRVTITCRASQSISSYLAWYQQKPGKAPKLLIYGASSRASGVPSRFSGSGSGTDFTLTISSLQPEDFATYYCQQYMSVPITFGQGTKVEIKR
notes: Unfused control Fab, used as culture supernatant; also called Fab of human IgG1 monoclonal antibody N1 (clone name YW64.3) against neuropilin 1
B1: no binding [1]; no binding [2].
